Earlier results as cited in paper PMC2879464.
Read-outs that look alike come from different tables or passages of the source.

Tests used:
[1] = target: cortactin (Homo sapiens) (UniProt Q14247)
[2] = target: cortactin (Homo sapiens) (UniProt Q14247); remark: listed apart in the source

UniProt Q14247, sequence (Q14247 whole entry): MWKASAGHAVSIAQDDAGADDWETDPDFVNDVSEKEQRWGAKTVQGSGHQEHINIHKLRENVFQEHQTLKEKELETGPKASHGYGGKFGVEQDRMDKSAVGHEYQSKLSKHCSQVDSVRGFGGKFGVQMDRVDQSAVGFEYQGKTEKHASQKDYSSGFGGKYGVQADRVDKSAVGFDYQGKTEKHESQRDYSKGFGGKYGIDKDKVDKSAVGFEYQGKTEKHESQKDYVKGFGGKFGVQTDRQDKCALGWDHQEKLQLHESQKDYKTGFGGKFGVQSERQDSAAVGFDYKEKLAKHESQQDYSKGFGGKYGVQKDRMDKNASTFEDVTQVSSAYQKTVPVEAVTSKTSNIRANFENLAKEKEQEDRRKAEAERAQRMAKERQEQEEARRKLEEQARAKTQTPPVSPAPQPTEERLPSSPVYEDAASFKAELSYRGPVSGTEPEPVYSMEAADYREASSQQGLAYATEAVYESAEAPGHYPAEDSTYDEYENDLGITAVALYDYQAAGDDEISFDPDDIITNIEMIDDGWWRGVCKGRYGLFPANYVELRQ

| Substance | Kd [1] [nM] | Kd [2] [nM] |
| --- | --- | --- |
| nmMLCK1 (from UniProt Q15746) | 1000 |  |
| nmMLCK2 (from UniProt Q15746) |  | 250 |
